In PMC12846780:

Target: IL7R (human (endogenous in PBMC T cells, SiHa, Daudi)) (UniProt P16871)
UniProt P16871, sequence (P16871 21-459): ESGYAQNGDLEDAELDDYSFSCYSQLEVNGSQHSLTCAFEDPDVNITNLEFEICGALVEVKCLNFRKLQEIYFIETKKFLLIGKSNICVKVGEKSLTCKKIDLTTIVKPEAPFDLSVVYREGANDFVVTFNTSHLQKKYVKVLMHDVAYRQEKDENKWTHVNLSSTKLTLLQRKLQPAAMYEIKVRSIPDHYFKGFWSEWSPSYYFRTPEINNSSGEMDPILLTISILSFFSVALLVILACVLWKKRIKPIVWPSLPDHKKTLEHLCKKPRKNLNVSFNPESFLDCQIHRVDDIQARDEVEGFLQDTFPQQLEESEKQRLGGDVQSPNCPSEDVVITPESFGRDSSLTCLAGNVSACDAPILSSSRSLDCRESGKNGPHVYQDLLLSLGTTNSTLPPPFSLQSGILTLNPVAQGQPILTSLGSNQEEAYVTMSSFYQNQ

- percent of T cells in PBMCs positive for VEGF-647 after 24 h with 10 nM kineTAC and 25 nM VEGF-647 (four donors): 85.4%
Substance: IL7-Bevacizumab kineTAC (from UniProt P13232 26-177) (bispecific antibody)
